Laboratory results: the RNAGym collection of RNA variant scans (doi:10.1073/pnas.2313332121)

B1: TPR t1 (parent)
chain: GACCAAUCUGCCCUCAGAGCUCGAGAACAUCUUCGGAUGCAGAGGAGGCAGGCUUCGGUGGCGCGAUAGCGCCAACGUCCUCAACCUCCAAUGCAUCCCACCACAUGAUGAUGCCUGAAGAGCCUUGGUUUUUUG

Variants of: B1
Assay: polymerase ribozyme fitness, log enrichment relative to wild type (log ratio); higher = more active; in vitro selection for triplet polymerase activity
How it was run: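 A single round of triplicate in vitro selection, including frozen incubation at −7 °C, was applied to PCR-built, transcribed mutant libraries of each subunit of a heterodimeric triplet polymerase ribozyme. Illumina sequencing of input and output libraries retained genotypes with ≥10 input reads and ≥1 read per output. Fitness is the base-2 logarithm of genotype enrichment divided by wild-type enrichment, from inverse-variance-weighted replicate averages.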

Compared with C13U U92C C104U, C13G C40G C123G is higher in “polymerase ribozyme fitness (log ratio)” value: -1.33 for the first, -0.377 for the second.

Compared with U14G A37G G42A G77A, C13U C73U is higher in “polymerase ribozyme fitness (log ratio)” value: -4.88 for the first, -0.351 for the second.

First: U14G G69C
Second: C13G A50G G51C G57U A74U
The “polymerase ribozyme fitness (log ratio)” value of the first is higher: -3.2 for the first, -3.43 for the second.

Going from C13G G45U C82U G113A to U14C U55C G117U U133G, the “polymerase ribozyme fitness (log ratio)” value falls from -2.94 to -5.59.

First: C13A U38A C53U C89A
Second: C13G C104U C123A U125G
The “polymerase ribozyme fitness (log ratio)” value of the first is lower: -4.39 for the first, 0.46 for the second.

Compared with C13U G47C C73A C99U, U14C A75G is higher in “polymerase ribozyme fitness (log ratio)” value: -4.72 for the first, -1.81 for the second.

Going from C13G G52U A68G A111C C124U U133C to C13G G69A, the “polymerase ribozyme fitness (log ratio)” value rises from -4.14 to -3.66.

Going from C13U C34U A111C C124U to C13U C62U G63C U112A, the “polymerase ribozyme fitness (log ratio)” value rises from -5.41 to -0.823.

Going from C13G A26C C40U C79U C85U G120C to C13U G47C C72G G110A, the “polymerase ribozyme fitness (log ratio)” value rises from -6.15 to -3.24.

Compared with C13U G19U G52U, C13U C123U is higher in “polymerase ribozyme fitness (log ratio)” value: -2.98 for the first, 1.41 for the second.

Going from U14A A18C G113A C123U to C13G C15A U106A C123A, the “polymerase ribozyme fitness (log ratio)” value rises from -4.67 to -1.05.

Going from C13G A26U G47A C82U to C13G A119U, the “polymerase ribozyme fitness (log ratio)” value rises from -5.11 to 0.114.

Going from C13G G51A to C13G G69C C94U C115U G135A, the “polymerase ribozyme fitness (log ratio)” value rises from -4.69 to -3.43.

Going from U14G G69A A90C U112A G128A to C13A G60C A84G, the “polymerase ribozyme fitness (log ratio)” value rises from -6.5 to -2.96.

First: U14C G57A C97U
Second: C13U C53G C56A G65A
The “polymerase ribozyme fitness (log ratio)” value of the first is higher: -3.84 for the first, -7.29 for the second.

Going from C13A G36A C72U A121C G127U to C13G A16C C85G A121C, the “polymerase ribozyme fitness (log ratio)” value falls from -0.199 to -3.75.

First: U14A A50C U125G
Second: C13U G63A U78C
The “polymerase ribozyme fitness (log ratio)” value of the first is lower: -3.97 for the first, -0.503 for the second.

Going from U14C U33C to U14G A46G G71C G120A, the “polymerase ribozyme fitness (log ratio)” value rises from -5.43 to -0.69.

Compared with C13G U59A A91U C115U, C13G A37C U112C is higher in “polymerase ribozyme fitness (log ratio)” value: -4.42 for the first, -0.647 for the second.

Compared with C13G U21A G52C G61U A91C G120C, U14G C20G G44U G117C is lower in “polymerase ribozyme fitness (log ratio)” value: -2.36 for the first, -6.5 for the second.

First: C13G C53A
Second: U14A C22A C101A U116G C124U
The “polymerase ribozyme fitness (log ratio)” value of the first is higher: -1.86 for the first, -5.17 for the second.

First: C13U C40A G120A U131G
Second: U14A A18U C73A G77C A119U
The “polymerase ribozyme fitness (log ratio)” value of the first is higher: -0.101 for the first, -3.61 for the second.

First: C13A G23U G61C C88U C98G U112A G113A
Second: C13G C73U U78C A121C
The “polymerase ribozyme fitness (log ratio)” value of the first is lower: -5.88 for the first, -0.0893 for the second.

Going from C13U U21C C64U to C13U G52C C94G A100U G113A, the “polymerase ribozyme fitness (log ratio)” value falls from -0.0953 to -2.95.

Compared with C13A G39U C56A, C13U C98A C115U is lower in “polymerase ribozyme fitness (log ratio)” value: -2.45 for the first, -5.17 for the second.

First: U14A A74G G117U
Second: C13A G61A A66U A121U U129G
The “polymerase ribozyme fitness (log ratio)” value of the first is lower: -4.7 for the first, -0.637 for the second.

First: C13U G63A C64U
Second: C13G C104U
The “polymerase ribozyme fitness (log ratio)” value of the first is lower: -4.34 for the first, -0.77 for the second.

Going from C13G G63C C70A C124A to C13U C40U, the “polymerase ribozyme fitness (log ratio)” value falls from 0.905 to -0.246.

C13U C40A and C13U G45U G60C C82U are within 0.2 log units of each other in “polymerase ribozyme fitness (log ratio)” value: -0.359 for the first, -0.444 for the second.

First: C13G G48A C73A
Second: C13U G61C
The “polymerase ribozyme fitness (log ratio)” value of the first is lower: -1.93 for the first, -1.59 for the second.

C13G G71C A84G C104A U109G G117U C124A U130G and C13U U33G G69U C104G G120A U125C are within 0.2 log units of each other in “polymerase ribozyme fitness (log ratio)” value: -6.92 for the first, -6.78 for the second.

Compared with C13G G42U, C13U C76A is higher in “polymerase ribozyme fitness (log ratio)” value: -2.84 for the first, -0.633 for the second.

Going from U14G G39A C85U G117A to C13G U112A G113A, the “polymerase ribozyme fitness (log ratio)” value rises from -3.84 to -2.13.

Compared with C13U C34A G71C A121U, C13A G44C C56U C124A is higher in “polymerase ribozyme fitness (log ratio)” value: -2.27 for the first, 0.969 for the second.

Compared with C13U G17U, U14A C56A C62U is lower in “polymerase ribozyme fitness (log ratio)” value: -2.37 for the first, -2.93 for the second.

Compared with C13U G42U, U14C A43G is lower in “polymerase ribozyme fitness (log ratio)” value: -1.12 for the first, -3.2 for the second.

First: C13G C114U
Second: U14C A18U G48U G71A
The “polymerase ribozyme fitness (log ratio)” value of the first is higher: -2.83 for the first, -6.1 for the second.

First: C13U G35A G48A U59C C86U G120U
Second: C13U G44U C56A
The “polymerase ribozyme fitness (log ratio)” value of the first is lower: -5.19 for the first, -1.59 for the second.

First: C13U C82G
Second: C13G C124A
The “polymerase ribozyme fitness (log ratio)” value of the first is lower: 0.0764 for the first, 1.06 for the second.

Going from C13G C124G to C13G C82A C102A U130G, the “polymerase ribozyme fitness (log ratio)” value falls from 0.288 to -4.93.

Compared with C13A G63A, C13U U55A G61C A84U C85G A95G U125G G128U is lower in “polymerase ribozyme fitness (log ratio)” value: -2.44 for the first, -3.92 for the second.

In the case of C13G G113A, the “polymerase ribozyme fitness (log ratio)” value is reported as -2.45.
